Laboratory results from US6410255B1, “Optical probes and assays” (priority 1999, dated 2002).
Where no end group is shown, it is not given here. The star is where a group is joined. FITC = O=C1OC2(c3ccc(O)cc3Oc3cc(O)ccc32)c2ccc(NC(=S)*)cc21

Experiments:
protein kinase A = protein kinase A (Homo sapiens, UniProt P17612); test: Protein kinase A inhibitor assay with optical probe; format: biochemical; conditions: inhibitor 10 μM, ATP 10 μM
Description: […] After one hour incubation at 30 C, chymotrypsin to a final concentration of 0.8 nM was added and the 460/530 ratio was determined after one hour, as described above (Example 6).

PTP-B = test: Inhibition of protein tyrosine phosphatase with phosphorylated Src-2 probe; format: biochemical; conditions: read-out: apparent IC50
Description: (§1) Optical probes were first phosphorylated to completion as described above, and samples of phosphorylated optical probe, at a final concentration of 500 nM, were incubated with various concentrations of protein tyrosine phosphatase-B (PTP-B) agarose (Upstate Biotechnology) for 20 minutes at 30 C in 0.1×PBS. At the required time interval, PTP-B-agarose was removed by a brief microfuige spin prior to transfer to 96-well Cytofluor plates for fluorescence measurements, after addition of chymotrypsin (100 nM), as described in Example 1.

v-Abl kinase = biological target: T1, v-Abl kinase (Abelson murine leukemia virus, UniProt P00521); test: v-Abl kinase phosphorylation of optical probe, fluorescence readout after chymotrypsin; format: biochemical
T1 construct: purchased Calbiochem
T1 sequence (P00521 whole entry): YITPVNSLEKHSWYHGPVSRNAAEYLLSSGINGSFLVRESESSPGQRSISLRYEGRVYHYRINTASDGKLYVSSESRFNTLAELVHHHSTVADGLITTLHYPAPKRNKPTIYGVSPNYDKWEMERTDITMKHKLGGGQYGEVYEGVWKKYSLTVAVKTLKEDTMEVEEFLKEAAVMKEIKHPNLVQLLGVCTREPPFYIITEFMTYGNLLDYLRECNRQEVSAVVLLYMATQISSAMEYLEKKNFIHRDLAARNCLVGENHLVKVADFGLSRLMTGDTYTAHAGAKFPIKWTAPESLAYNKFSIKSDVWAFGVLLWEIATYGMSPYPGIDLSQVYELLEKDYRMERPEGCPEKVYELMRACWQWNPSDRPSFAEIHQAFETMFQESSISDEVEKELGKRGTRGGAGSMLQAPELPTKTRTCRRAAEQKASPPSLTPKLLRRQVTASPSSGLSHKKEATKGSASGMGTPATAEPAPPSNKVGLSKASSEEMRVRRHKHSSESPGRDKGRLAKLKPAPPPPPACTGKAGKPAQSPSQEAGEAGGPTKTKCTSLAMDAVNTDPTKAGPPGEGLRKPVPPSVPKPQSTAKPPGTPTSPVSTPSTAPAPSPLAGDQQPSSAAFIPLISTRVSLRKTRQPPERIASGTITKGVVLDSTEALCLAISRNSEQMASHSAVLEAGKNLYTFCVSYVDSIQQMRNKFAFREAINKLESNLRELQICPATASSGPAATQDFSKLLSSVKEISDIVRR

chymotrypsin [1] = biological target: T2, chymotrypsin (Bos taurus, UniProt P00766); test: Chymotrypsin cleavage of phosphorylated and non-phosphorylated tyrosine kinase optical probes; format: biochemical, bovine; design: purchased Calbiochem 230832
Src kinase = biological target: T3, Src kinase (Homo sapiens, UniProt P12931); test: Src kinase phosphorylation of optical probes; format: biochemical; conditions: fluorescence after protease incubation; read-out: apparent Km with respect to the Src kinase
T3 construct: purchased Upstate Biotechnology

[2] = test system: protein tyrosine phosphatase-B (PTP-B); test: Dephosphorylation of phosphorylated optical probes by PTP-B; format: biochemical; conditions: for Fluorescence emission ratio of peptide after protease treatment: phosphorylated probe 500 nM, 20 minutes at 30 C
Description: as §1
In this experiment, the relative rates of dephosphorylation of the phosphorylated Src-2-specific substrate (SEQ. ID. NO: 29) and an abl-specific (SEQ. I.D. No. 4) substrate optical probes by the protein tyrosine phosphatase PTP-B were compared.

chymotrypsin [3] = biological target: T2, chymotrypsin; test: Chymotrypsin cleavage of optical probe with or without protein kinase A phosphorylation; format: biochemical; conditions: for 460/530 emission ratio, Non-phosphorylated Optical probe / 460/530 emission ratio, Phosphorylated Optical probe: 0.8 nM chymotrypsin
Description: ID. NO: 12, below, (the P′1, position with respect to the protease cleavage site of chymotrypsin).
The peptide ([…], SEQ. ID. NO: 12) was labeled with fluorescein isothiocyanate at the N-termninus and 7-hydroxycoumarin-3-carboxamide at the C-terminus as described above. To determine the relative proteolytic activity of the phosphorylated and non-phosphorylated optical probes, samples of both were prepared. […] Mock kinase reactions with no ATP were used to create non-phosphorylated, control samples. In both cases, the samples were diluted 10 fold with buffer containing 50 mM HEPES, pH 7.5, 10 mM CaCl2 and 0.01% Brij-35, and incubated with 0.8 nM chymotrypsin.

protein kinase C = test: Proteolytic susceptibility of optical probe after protein kinase C phosphorylation; format: biochemical; conditions: chymotrypsin
From the text: To measure protein kinase C activity using the optical probes of the present invention, a peptide ([…], SEQ. ID. NO: 12) was designed in which phosphorylation by protein kinase C occurred at the P′1 position (underlined in SEQ. ID. NO: 12) with respect to the scissile bond cleaved by chymotrypsin. This enabled an optimal protein kinase C recognition motif to placed within the optical probe sequence, and to create a site of phosphorylation that modulated the proteolytic sensitivity of the substrate towards chymotrypsin.

caspase-3 = biological target: T4, caspase-3 (Homo sapiens, UniProt P42574); test: Caspase-3 cleavage of optical probe with or without ERK2 phosphorylation; format: biochemical; conditions: 30 minutes exposure to caspase-3
T4 construct: purchased Upstate Biotechnology
T4 sequence (P42574 29-175 limits assumed): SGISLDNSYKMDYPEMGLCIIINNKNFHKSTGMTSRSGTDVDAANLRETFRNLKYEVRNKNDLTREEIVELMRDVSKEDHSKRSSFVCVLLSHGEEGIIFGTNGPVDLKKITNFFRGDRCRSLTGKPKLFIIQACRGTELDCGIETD
T4 sequence (P42574 176-277 limits assumed): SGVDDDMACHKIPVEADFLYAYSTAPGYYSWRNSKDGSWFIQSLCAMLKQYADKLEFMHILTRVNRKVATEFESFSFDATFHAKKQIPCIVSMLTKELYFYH
Description: To determine how phosphorylation on serine in the optical probe (SEQ. ID. NO: 24) effected the rate of caspase-3 cleavage, samples of phosphorylated and control (non-phosphorylated) optical probes were treated with the protease caspase-3. Phosphorylated samples of the optical probe (70 pmol) were prepared by 8 hour to overnight incubation with ERK2 kinase (Biomol). Reactions were typically performed in 10 μl using 200-500 μM ATP and 50-200 ng ERK2 in a buffer consisting of 50 mM HEPES, pH 7.5, 10 mM MgCl2, 1 mM EGTA, and 1 mM DTT at 30° C. Mock kinase reactions were performed for preparation of control (non-phosphorylated) optical probe as above, except ATP was omitted. To monitor cleavage of the optical probes by caspase-3, 10 μL volumes of phosphorylated and control (non-phosphorylated) samples of the optical probe were placed in individual wells of a 96-well multiwell plate. Caspase-3 cleavage reactions were carried out in these samples after dilution to 100 μL in a buffer consisting of 100 mM HEPES, pH 7.5, 5 mM DTT, 0.5 mM EDTA, 20% glycerol, 0.01% Brij-35, and 50-100 ng caspase-3 (Upstate Biotechnology), and incubated at room temperature. Emission readings were taken at 5 minute intervals during the course of the caspase-3 incubation using a Cytofluor plate reader as described in Example 1.

For `O=S(=O)(NCCNC/C=C/c1ccc(Br)cc1)c1cccc2cnccc12` [H-89], the “inhibition of protein kinase A activity” value (protein kinase A) was “almost complete inhibition”.

Work on `[O]=[V]([OH])([OH])[OH]` [Ortho-vanadate, orthovanadate] yielded an IC50 (PTP-B) of 420 nM.

In the case of AEAIYAAPL [abl substrate], the “turnover of the optical probe by v-Abl” value (v-Abl kinase) is reported as 9.5 s⁻¹, the Km (v-Abl kinase; read-out: apparent Km for the substrate) is reported as 40 µM and the “difference in emission ratios of phosphorylated (non-cleaved) and non-phosphorylated (cleaved) substrate” value (chymotrypsin [1]) is reported as 30 fold.

With “GEEEIYGVIEK [Src-2, fluorescently labeled optical probe for Src kinase; phosphorylated form is the PTP-B substrate]” the Km (Src kinase) was 19 µM, the “Fluorescence emission ratio of peptide after protease treatment” value (“Fluorescence emission ratio of peptide” for short) ([2]; Log concentration of PTP-B −7.7) was 17.7 and the “Fluorescence emission ratio of peptide” value ([2]; Log concentration of PTP-B −8.7) was 17.6. For the same molecule, the “Fluorescence emission ratio of peptide” value ([2]; Log concentration of PTP-B −9.7) was 15.8, the “Fluorescence emission ratio of peptide” value ([2]; Log concentration of PTP-B −10.7) was 5.40 and the “Fluorescence emission ratio of peptide” value ([2]; Log concentration of PTP-B −11.7) was 1.99. For the same molecule, the “Fluorescence emission ratio of peptide” value ([2]; Log concentration of PTP-B −12.7) was 1.75, the “Fluorescence emission ratio of peptide” value ([2]; Log concentration of PTP-B −13.7) was 1.62 and the “Fluorescence emission ratio of peptide” value ([2]; Log concentration of PTP-B −14.7) was 1.60. For the same molecule, the kcat ([2]; phosphorylated probe, PTP-B) was 79 s⁻¹ and the Km ([2]; phosphorylated probe, PTP-B, Michaelis-Menten plot, read-out: apparent Km) was 1.3 µM.

In the case of “RRRKFSLRRKA ({FITC}-RRRKFSLRRKA; not fully specified (residue 6, C-terminus)) [SEQ. ID. NO: 12, peptide labeled with fluorescein isothiocyanate at N-terminus and 7-hydroxycoumarin-3-carboxamide at C-terminus; protein kinase A and C probe]”, the “460/530 emission ratio, Non-phosphorylated Optical probe” value (chymotrypsin [3]; time of cleavage 0 minutes) is reported as 0.34, the “460/530 emission ratio, Phosphorylated Optical probe” value (chymotrypsin [3]; time of cleavage 0 minutes) is reported as 0.33 and the “460/530 emission ratio, Non-phosphorylated Optical probe” value (chymotrypsin [3]; time of cleavage 10 minutes) is reported as 3.15. For the same molecule, the “460/530 emission ratio, Phosphorylated Optical probe” value (chymotrypsin [3]; time of cleavage 10 minutes) was 0.54, the “460/530 emission ratio, Non-phosphorylated Optical probe” value (chymotrypsin [3]; time of cleavage 20 minutes) was 6.71 and the “460/530 emission ratio, Phosphorylated Optical probe” value (chymotrypsin [3]; time of cleavage 20 minutes) was 0.78. The “460/530 emission ratio, Phosphorylated Optical probe” value (chymotrypsin [3]; time of cleavage 30 minutes) was 1.02, the “460/530 emission ratio, Phosphorylated Optical probe” value (chymotrypsin [3]; time of cleavage 40 minutes) was 1.27 and the “460/530 emission ratio, Non-phosphorylated Optical probe” value (chymotrypsin [3]; time of cleavage 50 minutes) was 13.34. The “460/530 emission ratio, Phosphorylated Optical probe” value (chymotrypsin [3]; time of cleavage 50 minutes) was 1.53, the “460/530 emission ratio, Phosphorylated Optical probe” value (chymotrypsin [3]; time of cleavage 60 minutes) was 1.78 and the “Fold difference in ratios” value (chymotrypsin [3]; time of cleavage 0 minutes) was 1.0. For the same molecule, the “Fold difference in ratios” value (chymotrypsin [3]; time of cleavage 10 minutes) was 5.8, the “Fold difference in ratios” value (chymotrypsin [3]; time of cleavage 20 minutes) was 8.6 and the “Fold difference in ratios” value (chymotrypsin [3]; time of cleavage 30 minutes) was 9.7. The “Fold difference in ratios” value (chymotrypsin [3]; time of cleavage 40 minutes) was 9.5, the “Fold difference in ratios” value (chymotrypsin [3]; time of cleavage 50 minutes) was 8.7 and the “Fold difference in ratios” value (chymotrypsin [3]; time of cleavage 60 minutes) was 7.9. For the same molecule, the “effect of phosphorylation by protein kinase C on proteolytic susceptibility of the substrate” value (protein kinase C) was “significantly modulated”.

With “RVDEPFSPGEK (Optical probe with p-Ser in P′(sub 1)) [SEQ. ID. NO: 24, ERK kinase specific optical probe cleaved by caspase-3]” the “maximal difference in emission ratio of phosphorylated and non-phosphorylated optical probes” value (caspase-3) was “over a three fold difference”.
